The record followed here is PMC10786891, “Massively parallel profiling of RNA-targeting CRISPR-Cas13d”.

First the molecules themselves.
T1: EsCas13d, nuclease-dead (Eubacterium siraeum, UniProt B0MS50, R295A;H300A;R849A;H854A)
T1 sequence: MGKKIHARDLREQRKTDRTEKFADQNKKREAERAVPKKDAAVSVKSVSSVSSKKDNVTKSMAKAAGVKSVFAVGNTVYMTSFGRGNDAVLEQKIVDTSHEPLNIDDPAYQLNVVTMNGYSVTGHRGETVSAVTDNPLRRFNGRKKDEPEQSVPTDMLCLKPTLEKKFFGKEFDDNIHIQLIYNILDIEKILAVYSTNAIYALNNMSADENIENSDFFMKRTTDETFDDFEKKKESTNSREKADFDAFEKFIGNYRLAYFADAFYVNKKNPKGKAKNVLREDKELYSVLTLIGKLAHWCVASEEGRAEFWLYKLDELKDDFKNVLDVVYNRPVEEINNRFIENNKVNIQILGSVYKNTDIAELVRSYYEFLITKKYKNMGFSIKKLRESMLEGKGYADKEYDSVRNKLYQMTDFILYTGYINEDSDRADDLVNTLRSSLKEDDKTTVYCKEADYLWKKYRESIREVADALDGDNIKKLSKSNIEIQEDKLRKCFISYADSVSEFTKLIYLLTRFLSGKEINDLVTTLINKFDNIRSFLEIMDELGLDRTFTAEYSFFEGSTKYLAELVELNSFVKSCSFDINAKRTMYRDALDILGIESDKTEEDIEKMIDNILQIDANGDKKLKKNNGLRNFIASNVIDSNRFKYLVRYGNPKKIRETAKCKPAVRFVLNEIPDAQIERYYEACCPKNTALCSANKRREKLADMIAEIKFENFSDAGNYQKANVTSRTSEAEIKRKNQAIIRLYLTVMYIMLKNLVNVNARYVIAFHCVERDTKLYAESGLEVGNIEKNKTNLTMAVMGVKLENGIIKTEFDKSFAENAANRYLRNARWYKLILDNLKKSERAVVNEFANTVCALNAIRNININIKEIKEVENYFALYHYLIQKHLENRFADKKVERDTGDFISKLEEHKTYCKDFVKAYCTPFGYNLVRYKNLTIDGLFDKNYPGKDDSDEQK

B1: target 1 insG 3' of 22,insA 3' of 19 (mixed)
RNA 1: CACCCGUGCAAAAAUGCAGGGGUCUAAAACUGAGCGGAUAACCUCUCUAUGG
RNA 2: GGGAAUGGAUCCACAUCUACGAAUUCGUACGCAUAAGAGAGGUUAUCCGCUCACCGAGAUCGGAAGAGCACACGU
B2: target 1 C6G,A20U (mixed)
RNA 1: CACCCGUGCAAAAAUGCAGGGGUCUAAAACUGAGCGGAUAACCUCUCUAUGG
RNA 2: GGGAAUGGAUCCACAUCUACGAAUUCGUACCUUAGAGAGGUUAUCGGCUCACCGAGAUCGGAAGAGCACACGU
B3: target 1 C4A,C6U (mixed)
RNA 1: CACCCGUGCAAAAAUGCAGGGGUCUAAAACUGAGCGGAUAACCUCUCUAUGG
RNA 2: GGGAAUGGAUCCACAUCUACGAAUUCGUACCAUAGAGAGGUUAUCUGAUCACCGAGAUCGGAAGAGCACACGU
B4: target 1 insU 3' of 20,insG 3' of 7 (mixed)
RNA 1: CACCCGUGCAAAAAUGCAGGGGUCUAAAACUGAGCGGAUAACCUCUCUAUGG
RNA 2: GGGAAUGGAUCCACAUCUACGAAUUCGUACCAUUAGAGAGGUUAUCGCGCUCACCGAGAUCGGAAGAGCACACGU
B5: target 1 insA 3' of 21,insA 3' of 15 (mixed)
RNA 1: CACCCGUGCAAAAAUGCAGGGGUCUAAAACUGAGCGGAUAACCUCUCUAUGG
RNA 2: GGGAAUGGAUCCACAUCUACGAAUUCGUACCAAUAGAGAAGGUUAUCCGCUCACCGAGAUCGGAAGAGCACACGU
B6: target 1 insC 3' of 22,insC 3' of 18 (mixed)
RNA 1: CACCCGUGCAAAAAUGCAGGGGUCUAAAACUGAGCGGAUAACCUCUCUAUGG
RNA 2: GGGAAUGGAUCCACAUCUACGAAUUCGUACCCAUACGAGAGGUUAUCCGCUCACCGAGAUCGGAAGAGCACACGU
B7: target 1 insA 3' of 12,insC 3' of 9 (mixed)
RNA 1: CACCCGUGCAAAAAUGCAGGGGUCUAAAACUGAGCGGAUAACCUCUCUAUGG
RNA 2: GGGAAUGGAUCCACAUCUACGAAUUCGUACCAUAGAGAGGAUUACUCCGCUCACCGAGAUCGGAAGAGCACACGU
B8: target 1 insC 3' of 16,insC 3' of 13 (mixed)
RNA 1: CACCCGUGCAAAAAUGCAGGGGUCUAAAACUGAGCGGAUAACCUCUCUAUGG
RNA 2: GGGAAUGGAUCCACAUCUACGAAUUCGUACCAUAGACGAGCGUUAUCCGCUCACCGAGAUCGGAAGAGCACACGU
B9: target 1 insG 3' of 7,insA 3' of 6 (mixed)
RNA 1: CACCCGUGCAAAAAUGCAGGGGUCUAAAACUGAGCGGAUAACCUCUCUAUGG
RNA 2: GGGAAUGGAUCCACAUCUACGAAUUCGUACCAUAGAGAGGUUAUCGCAGCUCACCGAGAUCGGAAGAGCACACGU
B10: target 1 insG 3' of 16 (mixed)
RNA 1: CACCCGUGCAAAAAUGCAGGGGUCUAAAACUGAGCGGAUAACCUCUCUAUGG
RNA 2: GGGAAUGGAUCCACAUCUACGAAUUCGUACCAUAGAGGAGGUUAUCCGCUCACCGAGAUCGGAAGAGCACACGU
B11: target 1 insG 3' of 9,insG 3' of 2 (mixed)
RNA 1: CACCCGUGCAAAAAUGCAGGGGUCUAAAACUGAGCGGAUAACCUCUCUAUGG
RNA 2: GGGAAUGGAUCCACAUCUACGAAUUCGUACCAUAGAGAGGUUAGUCCGCUCGACCGAGAUCGGAAGAGCACACGU
B12: target 1 complement block 2-9 (mixed)
RNA 1: CACCCGUGCAAAAAUGCAGGGGUCUAAAACUGAGCGGAUAACCUCUCUAUGG
RNA 2: GGGAAUGGAUCCACAUCUACGAAUUCGUACCAUAGAGAGGUUUAGGCGAGACCGAGAUCGGAAGAGCACACGU
B13: target 1 insU 3' of 21,insG 3' of 21 (mixed)
RNA 1: CACCCGUGCAAAAAUGCAGGGGUCUAAAACUGAGCGGAUAACCUCUCUAUGG
RNA 2: GGGAAUGGAUCCACAUCUACGAAUUCGUACCUGAUAGAGAGGUUAUCCGCUCACCGAGAUCGGAAGAGCACACGU
B14: target 1 insC 3' of 15,insA 3' of 4 (mixed)
RNA 1: CACCCGUGCAAAAAUGCAGGGGUCUAAAACUGAGCGGAUAACCUCUCUAUGG
RNA 2: GGGAAUGGAUCCACAUCUACGAAUUCGUACCAUAGAGCAGGUUAUCCGCAUCACCGAGAUCGGAAGAGCACACGU
B15: target 1 insU 3' of 15,insG 3' of 9 (mixed)
RNA 1: CACCCGUGCAAAAAUGCAGGGGUCUAAAACUGAGCGGAUAACCUCUCUAUGG
RNA 2: GGGAAUGGAUCCACAUCUACGAAUUCGUACCAUAGAGUAGGUUAGUCCGCUCACCGAGAUCGGAAGAGCACACGU
B16: target 1 C2A,U8C (mixed)
RNA 1: CACCCGUGCAAAAAUGCAGGGGUCUAAAACUGAGCGGAUAACCUCUCUAUGG
RNA 2: GGGAAUGGAUCCACAUCUACGAAUUCGUACCAUAGAGAGGUUACCCGCUAACCGAGAUCGGAAGAGCACACGU
B17: target 1 insG 3' of 8,insG 3' of 8 (mixed)
RNA 1: CACCCGUGCAAAAAUGCAGGGGUCUAAAACUGAGCGGAUAACCUCUCUAUGG
RNA 2: GGGAAUGGAUCCACAUCUACGAAUUCGUACCAUAGAGAGGUUAUGGCCGCUCACCGAGAUCGGAAGAGCACACGU
B18: target 1 C6A,U19C (mixed)
RNA 1: CACCCGUGCAAAAAUGCAGGGGUCUAAAACUGAGCGGAUAACCUCUCUAUGG
RNA 2: GGGAAUGGAUCCACAUCUACGAAUUCGUACCACAGAGAGGUUAUCAGCUCACCGAGAUCGGAAGAGCACACGU
B19: target 1 C2U,C22A (mixed)
RNA 1: CACCCGUGCAAAAAUGCAGGGGUCUAAAACUGAGCGGAUAACCUCUCUAUGG
RNA 2: GGGAAUGGAUCCACAUCUACGAAUUCGUAACAUAGAGAGGUUAUCCGCUUACCGAGAUCGGAAGAGCACACGU
B20: target 1 C2U,A16C (mixed)
RNA 1: CACCCGUGCAAAAAUGCAGGGGUCUAAAACUGAGCGGAUAACCUCUCUAUGG
RNA 2: GGGAAUGGAUCCACAUCUACGAAUUCGUACCAUAGCGAGGUUAUCCGCUUACCGAGAUCGGAAGAGCACACGU
B21: target 1 C7G,U19A (mixed)
RNA 1: CACCCGUGCAAAAAUGCAGGGGUCUAAAACUGAGCGGAUAACCUCUCUAUGG
RNA 2: GGGAAUGGAUCCACAUCUACGAAUUCGUACCAAAGAGAGGUUAUGCGCUCACCGAGAUCGGAAGAGCACACGU
B22: target 1 insU 3' of 15,insG 3' of 4 (mixed)
RNA 1: CACCCGUGCAAAAAUGCAGGGGUCUAAAACUGAGCGGAUAACCUCUCUAUGG
RNA 2: GGGAAUGGAUCCACAUCUACGAAUUCGUACCAUAGAGUAGGUUAUCCGCGUCACCGAGAUCGGAAGAGCACACGU
B23: target 1 C7A,C21U (mixed)
RNA 1: CACCCGUGCAAAAAUGCAGGGGUCUAAAACUGAGCGGAUAACCUCUCUAUGG
RNA 2: GGGAAUGGAUCCACAUCUACGAAUUCGUACUAUAGAGAGGUUAUACGCUCACCGAGAUCGGAAGAGCACACGU
B24: target 1 C6A,A14U (mixed)
RNA 1: CACCCGUGCAAAAAUGCAGGGGUCUAAAACUGAGCGGAUAACCUCUCUAUGG
RNA 2: GGGAAUGGAUCCACAUCUACGAAUUCGUACCAUAGAGUGGUUAUCAGCUCACCGAGAUCGGAAGAGCACACGU
B25: target 1 G12A,C22U (mixed)
RNA 1: CACCCGUGCAAAAAUGCAGGGGUCUAAAACUGAGCGGAUAACCUCUCUAUGG
RNA 2: GGGAAUGGAUCCACAUCUACGAAUUCGUAUCAUAGAGAGAUUAUCCGCUCACCGAGAUCGGAAGAGCACACGU
B26: target 1 insC 3' of 16,insG 3' of 3 (mixed)
RNA 1: CACCCGUGCAAAAAUGCAGGGGUCUAAAACUGAGCGGAUAACCUCUCUAUGG
RNA 2: GGGAAUGGAUCCACAUCUACGAAUUCGUACCAUAGACGAGGUUAUCCGCUGCACCGAGAUCGGAAGAGCACACGU
B27: target 1 insU 3' of 14,insG 3' of 3 (mixed)
RNA 1: CACCCGUGCAAAAAUGCAGGGGUCUAAAACUGAGCGGAUAACCUCUCUAUGG
RNA 2: GGGAAUGGAUCCACAUCUACGAAUUCGUACCAUAGAGAUGGUUAUCCGCUGCACCGAGAUCGGAAGAGCACACGU

The series concerns the target T1, EsCas13d, nuclease-dead. The series is described as follows: crRNA (strand 1, pre-loaded); Mg2+; 40 mM Tris-HCl pH 7.5, 150 mM NaCl, 6 mM MgCl2, 1 mM DTT, 0.1% Tween-20, 0.2 mg/ml BSA; 25 C; 10 min per concentration, then washed. Conditions: tags: His6-TwinStrep-SUMO cleaved; N-terminal SNAP kept (SNAP-Surface 488); label: 3' end held by stalled T7 RNA polymerase.
Turning to B1, binding was put at a Kd of 63 ± 10 nM.

B2: the Kd amounted to 40.5 ± 2.5 nM.

With B3, the dissociation constant Kd amounted to 4.16 ± 0.27 nM.

Consider B4, for which the Kd turned out to be 11.8 ± 0.6 nM.

Molecule B5 had an equilibrium dissociation constant (Kd) of 9.4 ± 0.6 nM.

For B6, the Kd amounted to 41 ± 16 nM. This Kd lies about 4.4-fold higher than the previous one.

Molecule B7 returned a Kd of 40 ± 5 nM.

In turn, B8 had a dissociation constant Kd of 83 ± 27 nM.

As to B9, the Kd was 9 ± 0.6 nM.

Consider B10, for which binding was put at a Kd of 12.1 ± 1.1 nM.

In turn, B11 registered a Kd of 17.2 ± 1 nM.

The molecule B12 registered an equilibrium dissociation constant (Kd) of 7.29 ± 0.23 nM.

Molecule B13 returned a Kd of 54 ± 6 nM.

Molecule B14 came in with a Kd of 6.5 ± 0.5 nM. This Kd lies about 8.3-fold lower than the previous one.

As for B15, binding was characterised by a dissociation constant (Kd) of 13 ± 0.6 nM.

Molecule B16 displayed a Kd of 5.2 ± 0.4 nM.

Regarding B17, the Kd was found to be 45.3 ± 3.2 nM.

The molecule B18 came in with a Kd of 21.3 ± 1.9 nM. This Kd lies about 2.1-fold lower than the previous one.

The molecule B19 yielded a dissociation constant (Kd) of 16.2 ± 1.2 nM.

B20 came in with a Kd of 56 ± 4 nM.

On to B21, for which the Kd amounted to 56 ± 9 nM.

For the molecule B22, the Kd was 13.5 ± 1.3 nM.

As for B23, binding was put at a Kd of 6.56 ± 0.31 nM. This Kd is about 2.1-fold lower than that of the molecule before.

The molecule B24 gave a Kd of 54 ± 9 nM. Against the preceding molecule, the Kd is about 8.2-fold higher.

As to B25, the affinity, expressed as Kd, was 13 ± 1.1 nM.

For the molecule B26, the Kd amounted to 50 ± 8 nM.

Molecule B27 returned a Kd of 34 ± 4 nM.

By Kd is commonly meant the constant that tells how readily two partners part at equilibrium. Higher therefore signals a looser complex.
